# B1: His-tagged H1.0 C-terminal domain (H1C, aas 96–194) (domain or fragment, human, UniProt P07305 96-194, looked up)
# chain: AKSDEPKKSVAFKKTKKEIKKVATPKKASKPKKAASKAPTKKPKATPVKKAKKKLAATPKKAKKPKTVKAKPVKASKPKKAKPVKPKAKSSAKRAGKKK
# B2: Nsp1_FG (497–608), construct containing five FG repeats from nucleoporin Nsp1 (domain or fragment)
# chain: not shown
# Biological target: importin β (Impβ) (human, UniProt Q14974 1-876)
# Experiment: pull-down
# importin β (Impβ), sequence (Q14974 whole entry): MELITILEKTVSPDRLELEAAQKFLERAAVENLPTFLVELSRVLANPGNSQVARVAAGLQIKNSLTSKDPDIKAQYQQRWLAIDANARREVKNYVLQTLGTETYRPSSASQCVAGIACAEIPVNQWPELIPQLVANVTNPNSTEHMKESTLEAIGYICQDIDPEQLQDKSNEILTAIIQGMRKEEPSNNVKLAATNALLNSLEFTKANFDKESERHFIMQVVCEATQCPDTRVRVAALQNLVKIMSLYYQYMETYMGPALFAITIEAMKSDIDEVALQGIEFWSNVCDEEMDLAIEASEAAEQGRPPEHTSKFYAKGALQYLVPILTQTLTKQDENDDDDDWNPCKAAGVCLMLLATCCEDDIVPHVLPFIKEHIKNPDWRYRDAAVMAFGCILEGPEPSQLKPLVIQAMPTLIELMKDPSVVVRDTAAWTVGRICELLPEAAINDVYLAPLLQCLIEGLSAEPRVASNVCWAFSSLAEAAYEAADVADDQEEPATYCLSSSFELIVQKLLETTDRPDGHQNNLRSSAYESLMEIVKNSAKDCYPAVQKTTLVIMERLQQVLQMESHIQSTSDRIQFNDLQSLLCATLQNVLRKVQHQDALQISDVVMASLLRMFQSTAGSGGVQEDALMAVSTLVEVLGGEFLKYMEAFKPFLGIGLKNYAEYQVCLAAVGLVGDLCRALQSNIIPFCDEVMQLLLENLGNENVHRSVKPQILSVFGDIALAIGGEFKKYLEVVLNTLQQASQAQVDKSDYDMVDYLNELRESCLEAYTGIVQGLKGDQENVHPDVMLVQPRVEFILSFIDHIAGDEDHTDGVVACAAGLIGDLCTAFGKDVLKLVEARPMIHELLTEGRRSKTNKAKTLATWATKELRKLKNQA
row,Binder,binding result
1,B1,binds
2,B2,binds

# Reference: article PMC6436938 (Molecular Cell, 2019)
